Laboratory results from US20170158777A1 (ORUM THERAPEUTICS, published 2017).

Biological target: T1, integrin ανβ3 on K562 integrin ανβ3-overexpressing cells (UniProt P06756 31-1048; P05106 27-788)
T1 construct: whole, on cells; Heterodimer overexpressed on K562 cells; Parental K562 cells served as the comparison; also called K562 integrin ανβ3 cells
Assay: FACS on K562 integrin ανβ3-overexpressing cells, 100 nM antibody with 300 IU/ml heparin
Description: Specifically, each of a K562 cell line and a K562 integrin ανβ3-overexpressing cell line was added to 1.5 ml at a density of 2×10⁵ cells, then washed twice with washing buffer (pH 7.4 PBS, 2% FBS). […] The cells were washed twice with washing buffer, and then stained with an Alexa488 (green fluorescence)-labeled antibody (Invitrogen) that specifically recognizes human IgG, at 4° for 1 hour. Next, the cells were washed twice with washing buffer, and analyzed by FACS.

B1: RGD10 peptide-fused anti-Ras•GTP iMab RT11 (antibody, V domains shown)
VH: EVQLVESGGGLVQPGGSLRLSCAASGFTFSSYSMSWVRQAPGKGLEWVSYISRTSHTTYYADSVKGRFTISRDNSKNTLYLQMNSLRAEDTAVYYCARGFFMDYWGQGTLVTVSS
VL: DLVMTQSPSSLSASVGDRVTITCKSSQSLFNSRTRKNYLAWYQQKPGKAPKLLIYWASTRESGVPSRFSGSGSGTDFTLTISSLQPEDFATYYCQQYYYHMYTFGQGTKVEIKR
notes: also called RGD10-RT11; RGD10 peptide-fused RT11
binding result: binds
